# No end group written: not given here. *: point of attachment. (PEG)2 40 kDa = branched PEG of 40 kDa linked via the Cys side-chain thiol (code C2 = Cys(PEG)2 40 kDa); Succinimide(1-Et,3-yl) = CCN1C(=O)CC(*)C1=O
# T1: rat NMUR1-ATG (rat, UniProt Q9JJI5 1-425)
# T1 sequence (looked up): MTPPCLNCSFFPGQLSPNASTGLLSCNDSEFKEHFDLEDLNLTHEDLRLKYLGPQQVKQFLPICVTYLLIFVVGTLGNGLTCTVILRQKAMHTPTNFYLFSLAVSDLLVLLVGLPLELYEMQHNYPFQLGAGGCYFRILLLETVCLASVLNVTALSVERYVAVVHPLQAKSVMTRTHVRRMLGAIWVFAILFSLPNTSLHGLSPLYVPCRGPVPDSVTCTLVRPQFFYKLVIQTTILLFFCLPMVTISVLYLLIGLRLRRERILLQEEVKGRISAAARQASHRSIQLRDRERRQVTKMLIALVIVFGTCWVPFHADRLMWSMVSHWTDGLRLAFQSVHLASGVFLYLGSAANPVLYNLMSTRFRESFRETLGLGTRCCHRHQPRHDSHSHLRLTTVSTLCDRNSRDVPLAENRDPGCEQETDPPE
# T2: human NMUR1 (human, UniProt Q9HB89 1-426)
# T2 sequence (looked up): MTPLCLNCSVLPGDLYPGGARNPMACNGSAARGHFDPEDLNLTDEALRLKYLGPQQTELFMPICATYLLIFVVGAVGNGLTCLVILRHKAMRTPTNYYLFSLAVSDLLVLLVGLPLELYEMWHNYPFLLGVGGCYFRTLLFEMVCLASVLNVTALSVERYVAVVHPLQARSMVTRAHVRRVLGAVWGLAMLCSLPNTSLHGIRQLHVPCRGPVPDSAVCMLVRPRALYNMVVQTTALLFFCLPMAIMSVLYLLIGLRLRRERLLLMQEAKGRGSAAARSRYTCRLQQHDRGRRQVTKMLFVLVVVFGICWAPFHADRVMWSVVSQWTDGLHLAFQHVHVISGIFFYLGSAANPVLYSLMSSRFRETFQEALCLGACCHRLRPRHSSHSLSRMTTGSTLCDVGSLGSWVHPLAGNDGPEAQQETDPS
# T3: mouse NMUR1-CTG (mouse, UniProt O55040 1-428)
# T3 sequence (looked up): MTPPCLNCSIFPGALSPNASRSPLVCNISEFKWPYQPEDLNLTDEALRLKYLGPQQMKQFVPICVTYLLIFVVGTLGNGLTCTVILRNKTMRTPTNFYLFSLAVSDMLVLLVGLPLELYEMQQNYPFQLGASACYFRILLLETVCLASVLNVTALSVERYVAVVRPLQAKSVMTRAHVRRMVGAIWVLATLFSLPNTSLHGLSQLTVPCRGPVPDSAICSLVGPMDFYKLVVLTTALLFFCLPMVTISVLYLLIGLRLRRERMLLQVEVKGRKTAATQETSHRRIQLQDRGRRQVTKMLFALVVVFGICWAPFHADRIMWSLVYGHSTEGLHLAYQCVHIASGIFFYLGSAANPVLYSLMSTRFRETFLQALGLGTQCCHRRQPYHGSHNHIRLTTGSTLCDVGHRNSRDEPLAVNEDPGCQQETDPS
# T4: mouse NMUR1-ATG (mouse, UniProt O55040 1-428)
# T4 sequence (looked up): T3 sequence (looked up)
# B1: NMU6 (peptide)
# peptide: Ac-C(Succinimide(1-Et,3-yl))GYFLFRPRN-NH2
# SMILES: CCN1C(=O)CC(SC[C@H](NC(C)=O)C(=O)NCC(=O)N[C@@H](Cc2ccc(O)cc2)C(=O)N[C@@H](Cc2ccccc2)C(=O)N[C@@H](CC(C)C)C(=O)N[C@@H](Cc2ccccc2)C(=O)N[C@@H](CCCNC(=N)N)C(=O)N2CCC[C@H]2C(=O)N[C@@H](CCCNC(=N)N)C(=O)N[C@@H](CC(N)=O)C(N)=O)C1=O
# Target: rat NMUR2 (rat, UniProt Q9ESQ4 1-395)
# Sequence (Q9ESQ4 whole entry): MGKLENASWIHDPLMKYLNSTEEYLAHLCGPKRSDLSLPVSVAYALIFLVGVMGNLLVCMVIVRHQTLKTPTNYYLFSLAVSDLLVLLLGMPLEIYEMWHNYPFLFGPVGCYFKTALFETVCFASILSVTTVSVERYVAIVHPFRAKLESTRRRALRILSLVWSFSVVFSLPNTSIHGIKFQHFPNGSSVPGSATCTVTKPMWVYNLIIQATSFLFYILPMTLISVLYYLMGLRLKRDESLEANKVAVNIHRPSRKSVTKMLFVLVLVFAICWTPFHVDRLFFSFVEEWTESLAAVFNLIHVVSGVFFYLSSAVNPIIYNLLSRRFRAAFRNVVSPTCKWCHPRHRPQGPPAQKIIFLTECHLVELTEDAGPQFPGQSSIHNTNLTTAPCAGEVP
# Assay: cell-based or functional assay
% Activity (FLIPR) [%],EC50 (FLIPR) [nM],Binder
100,2.9,FRVDEEFQSPFASQSRPYFLFRPRN-NH2 [NMU4]
100,1.8,GYFLFRPRN-NH2 [NMU3]
100,4.5,Ac-C((PEG)2 40 kDa)FRVDEEFQSPFASQSRGYFLFRPRN-NH2 [NMU9]
87.1,71.7,FRVDEEFQSPFASQSRGYFLFRPRN-NH2 (not fully specified (N-terminus)) [NMU1]
100,2.3,Ac-FRVDEEFQSPFASQSRPYFLFRPRN-NH2 [NMU5]
100,1.5,B1

# Target: T1, rat NMUR1-ATG
# Assay: cell-based or functional assay
% Activity (FLIPR) [%],EC50 (FLIPR) [nM],Binder
100,3.8,FRVDEEFQSPFASQSRPYFLFRPRN-NH2 [NMU4]
100,0.7,GYFLFRPRN-NH2 [NMU3]
100,9.7,Ac-C((PEG)2 40 kDa)FRVDEEFQSPFASQSRGYFLFRPRN-NH2 [NMU9]
59.3,718,FRVDEEFQSPFASQSRGYFLFRPRN-NH2 (not fully specified (N-terminus)) [NMU1]
100,3.6,Ac-FRVDEEFQSPFASQSRPYFLFRPRN-NH2 [NMU5]
100,1,B1

# Target: T2, human NMUR1
# Assay: cell-based or functional assay
% Activity (FLIPR) [%],EC50 (FLIPR) [nM],Binder
97,7.2,FRVDEEFQSPFASQSRPYFLFRPRN-NH2 [NMU4]
98.9,5.6,GYFLFRPRN-NH2 [NMU3]
94.4,50.6,Ac-C((PEG)2 40 kDa)FRVDEEFQSPFASQSRGYFLFRPRN-NH2 [NMU9]
83.7,81.4,FRVDEEFQSPFASQSRGYFLFRPRN-NH2 (not fully specified (N-terminus)) [NMU1]
98.1,6.1,Ac-FRVDEEFQSPFASQSRPYFLFRPRN-NH2 [NMU5]
96.7,3.5,B1

# Target: human NMUR2 (human, UniProt Q9GZQ4 1-415)
# Sequence (Q9GZQ4 whole entry): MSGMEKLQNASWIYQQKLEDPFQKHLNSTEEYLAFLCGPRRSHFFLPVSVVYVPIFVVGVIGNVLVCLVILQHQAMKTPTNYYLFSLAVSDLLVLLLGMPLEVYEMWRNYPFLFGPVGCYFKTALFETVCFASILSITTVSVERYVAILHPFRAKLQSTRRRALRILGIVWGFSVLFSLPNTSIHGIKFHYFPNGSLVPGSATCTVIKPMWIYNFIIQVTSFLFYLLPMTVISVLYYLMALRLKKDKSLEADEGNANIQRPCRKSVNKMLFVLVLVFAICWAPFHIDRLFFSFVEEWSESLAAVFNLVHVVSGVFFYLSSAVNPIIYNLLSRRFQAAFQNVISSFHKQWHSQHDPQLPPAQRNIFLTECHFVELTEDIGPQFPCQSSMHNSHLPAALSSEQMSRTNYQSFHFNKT
# Assay: cell-based or functional assay
% Activity (FLIPR) [%],EC50 (FLIPR) [nM],Binder
100,2.6,FRVDEEFQSPFASQSRPYFLFRPRN-NH2 [NMU4]
100,1.9,GYFLFRPRN-NH2 [NMU3]
94.3,91.1,Ac-C((PEG)2 40 kDa)FRVDEEFQSPFASQSRGYFLFRPRN-NH2 [NMU9]
85,64.8,FRVDEEFQSPFASQSRGYFLFRPRN-NH2 (not fully specified (N-terminus)) [NMU1]
98.1,2.5,Ac-FRVDEEFQSPFASQSRPYFLFRPRN-NH2 [NMU5]
100,1.5,B1

# Target: mouse NMUR2 (mouse, UniProt Q8BZ39 1-395)
# Sequence (Q8BZ39 whole entry): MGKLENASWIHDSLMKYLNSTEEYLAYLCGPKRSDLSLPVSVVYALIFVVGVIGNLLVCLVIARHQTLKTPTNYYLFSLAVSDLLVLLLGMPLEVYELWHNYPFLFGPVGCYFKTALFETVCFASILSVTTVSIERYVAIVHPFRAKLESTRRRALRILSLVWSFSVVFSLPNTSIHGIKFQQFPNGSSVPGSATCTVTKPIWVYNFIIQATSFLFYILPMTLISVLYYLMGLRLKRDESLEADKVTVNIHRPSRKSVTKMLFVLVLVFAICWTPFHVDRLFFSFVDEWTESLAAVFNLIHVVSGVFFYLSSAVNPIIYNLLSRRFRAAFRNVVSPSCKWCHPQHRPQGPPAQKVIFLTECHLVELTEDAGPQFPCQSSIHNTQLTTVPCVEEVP
# Assay: cell-based or functional assay
% Activity (FLIPR) [%],EC50 (FLIPR) [nM],Binder
100,1.2,FRVDEEFQSPFASQSRPYFLFRPRN-NH2 [NMU4]
100,1,GYFLFRPRN-NH2 [NMU3]
100,19,Ac-C((PEG)2 40 kDa)FRVDEEFQSPFASQSRGYFLFRPRN-NH2 [NMU9]
95.7,31,FRVDEEFQSPFASQSRGYFLFRPRN-NH2 (not fully specified (N-terminus)) [NMU1]
100,1,Ac-FRVDEEFQSPFASQSRPYFLFRPRN-NH2 [NMU5]
100,0.7,B1

# Target: T3, mouse NMUR1-CTG
# Assay: cell-based or functional assay
% Activity (FLIPR) [%],EC50 (FLIPR) [nM],Binder
100,11.6,FRVDEEFQSPFASQSRPYFLFRPRN-NH2 [NMU4]
100,4.7,GYFLFRPRN-NH2 [NMU3]
71.7,1000,Ac-C((PEG)2 40 kDa)FRVDEEFQSPFASQSRGYFLFRPRN-NH2 [NMU9]
100,11.9,Ac-FRVDEEFQSPFASQSRPYFLFRPRN-NH2 [NMU5]
100,2,B1

# Target: T4, mouse NMUR1-ATG
# Assay: cell-based or functional assay
% Activity (FLIPR) [%],EC50 (FLIPR) [nM],Binder
100,3.6,FRVDEEFQSPFASQSRPYFLFRPRN-NH2 [NMU4]
100,2.9,GYFLFRPRN-NH2 [NMU3]
95,45.7,Ac-C((PEG)2 40 kDa)FRVDEEFQSPFASQSRGYFLFRPRN-NH2 [NMU9]
100,3.3,Ac-FRVDEEFQSPFASQSRPYFLFRPRN-NH2 [NMU5]
100,1,B1
